Tests used:
[1] = target: Candida albicans (Cat. No. 10231, ATCC) whole cells (Candida albicans); assay: colorimetric ELISA on C. albicans cells, [50% Max]
[2] = target: Candida albicans (Cat. No. 10231, ATCC) whole cells (Candida albicans); assay: FACS, IgG on fixed cells
[3] = target: Candida krusei clinical isolate, whole cells (Candida krusei); assay: FACS, IgG on fixed cells
[4] = target: Candida albicans (Cat. No. 10231, ATCC) whole cells (Candida albicans); assay: FACS, IgG on fixed C. albicans cells, concentration at 50% maximum binding
[5] = target: Candida albicans (Cat. No. 10231, ATCC) whole cells (Candida albicans); assay: colorimetric ELISA on C. albicans cells
[6] = target: Candida glabrata clinical isolate, whole cells (Candida glabrata); assay: FACS, IgG on fixed cells
[7] = target: Candida tropicalis clinical isolate, whole cells (Candida tropicalis); assay: FACS, IgG on fixed cells
[8] = target: Candida albicans (Cat. No. 10231, ATCC) whole cells (Candida albicans); assay: luminescent ELISA on C. albicans cells
[9] = target: Candida albicans (Cat. No. 10231, ATCC) whole cells (Candida albicans); assay: FACS, IgG on fixed C. albicans cells; end tied to 1H12 by Table 23
[10] = target: Candida albicans (Cat. No. 10231, ATCC) whole cells (Candida albicans); assay: FACS, IgG on fixed C. albicans cells; end tied to 1F8 by Table 23

B1: 2G12 Polymun (Cat. No. AB002, Polymun Scientific) (antibody, V domains shown)
VH: EVQLVESGGGLVKAGGSLILSCGVSNFRISAHTMNWVRRVPGGGLEWVASISTSSTYRDYADAVKGRFTVSRDDLEDFVYLQMHKMRVEDTAIYYCARKGSDRLSDNDPFDAWGPGTVVTVSP
VL: DVVMTQSPSTLSASVGDTITITCRASQSIETWLAWYQQKPGKAPKLLIYKASTLKTGVPSRFSGSGSGTEFTLTISGLQFDDFATYHCQHYAGYSATFGQGTRVEIKR
EC50 [1]: 76.3 nM | affinity [2]: 500 nM | affinity [3]: 1000 nM | EC50 [4]: 500 nM | EC50 [5]: 500 nM

B2: A5G10 IgG (antibody, V domains shown)
VH: EVQLVESGGGLVKAGGSLILSCGVSNFRISAHTMNWVRRVPGGGLEWVASISTSSTYRDYADAVKGRFTVSRDDLEDFVYLQMHKMRVEDTAIYYCARKGSDRLSDNDPFDAWGPGTVVTVSP
VL: GVVMTQSPSTLSASVGDTITITCRASQSIETWLAWYQQKPGKAPKLLIYKASTLKTGVPSRFSGSGSGTEFTLTISGLQFDDFATYHCQHYRPHTGATFGQGTRVEIKR
affinity [2]: 50 nM | affinity [3]: 50 nM | affinity [6]: 72 nM

B3: 2G12 IgG (wildtype, made in house) (antibody, V domains shown)
VH: EVQLVESGGGLVKAGGSLILSCGVSNFRISAHTMNWVRRVPGGGLEWVASISTSSTYRDYADAVKGRFTVSRDDLEDFVYLQMHKMRVEDTAIYYCARKGSDRLSDNDPFDAWGPGTVVTVSP
VL: DVVMTQSPSTLSASVGDTITITCRASQSIETWLAWYQQKPGKAPKLLIYKASTLKTGVPSRFSGSGSGTEFTLTISGLQFDDFATYHCQHYAGYSATFGQGTRVEIKR
EC50 [1]: 9.7 nM | EC50 [4]: 150 nM | fold higher affinity than 2G12 Polymun [5]: 8 fold

B4: P1F9 IgG (antibody, V domains shown)
VH: EVQLVESGGGLVKAGGSLILSCGVSNFRISAHTMNWVRRVPGGGLEWVASISTSSTYRDYADAVKGRFTVSRDDLEDFVYLQMHKMRVEDTAIYYCARKGSDRLSDNDPFDAWGPGTVVTVSP
VL: GVVMTQSPSTLSASVGDTITITCRASQSIETWLAWYQQKPGKAPKLLIYKASTLKTGVPSRFSGSGSGTEFTLTISGLQFDDFATYHCQHYRAHTGATFGQGTRVEIKR
affinity [7]: 51 nM | affinity [2]: 23 nM | affinity [3]: 27 nM | affinity [6]: 102 nM | EC50 [8]: 19 nM | EC50 [5]: 3.2 nM

B5: 1H12 IgG (antibody, V domains shown)
VH: EVQLVESGGGLVKAGGSLILSCGVSNFRISAHTMNWVRRVPGGGLEWVASISTSSTYRDYADAVKGRFTVSRDDLEDFVYLQMHKMRVEDTAIYYCARKGSDRLSDNDPFDAWGPGTVVTVSP
VL: GVVMTQSPSTLSASVGDTITITCRASQSIETWLAWYQQKPGKAPKLLIYKASTLKTGVPSRFSGSGSGTEFTLTISGLQFDDFATYHCQHYMPYRASFGQGTRVEIKR
EC50 [1]: 0.4 nM | affinity [7]: 23 nM | affinity [2]: 10 nM | affinity [3]: 17 nM | affinity [6]: 12 nM | EC50 [4]: 5.2 nM | EC50 [8]: 6.1 nM | EC50 [5]: 0.82 nM | fold increased binding affinity against wildtype 2G12 [9]: 30 fold

B6: P4H12 IgG (antibody, V domains shown)
VH: EVQLVESGGGLVKAGGSLILSCGVSNFRISAHTMNWVRRVPGGGLEWVASISTSSTYRDYADAVKGRFTVSRDDLEDFVYLQMHKMRVEDTAIYYCARKGSDRLSDNDPFDAWGPGTVVTVSP
VL: GVVMTQSPSTLSASVGDTITITCRASQSIETWLAWYQQKPGKAPKLLIYKASTLKTGVPSRFSGSGSGTEFTLTISGLQFDDFATYHCQHYTAHRGATFGQGTRVEIKR
affinity [7]: 21 nM

B7: 1F8 IgG (antibody, V domains shown)
VH: EVQLVESGGGLVKAGGSLILSCGVSNFRISAHTMNWVRRVPGGGLEWVASISTSSTYRDYADAVKGRFTVSRDDLEDFVYLQMHKMRVEDTAIYYCARKGSDRLSDNDPFDAWGPGTVVTVSP
VL: GVVMTQSPSTLSASVGDTITITCRASQSIETWLAWYQQKPGKAPKLLIYKASTLKTGVPSRFSGSGSGTEFTLTISGLQFDDFATYHCQHYLPFNATFGQGTRVEIKR
EC50 [1]: 0.9 nM | EC50 [4]: 15.1 nM | fold increased binding affinity against wildtype 2G12 [10]: 10 fold

Reference: patent US20110189183A1
